We go through 72 molecules from US20250011363A1, “OPTIMIZED SHORTENED PEPTIDE THAT BINDS TO ACETYLCHOLINE RECEPTOR, AND USE THEREOF” (SKINMED CO., LTD., priority 2021, published 2025).

The assay addresses acetylcholine receptor. The assay can be described thus: SPR, receptor immobilized, peptide 10 uM. (In SPR one partner is held on a chip, and binding of the other changes the refractive index at the surface.)

For RTSIRK [6mer-2-891], the Binding affinity (RU) was determined as 28 RU.
Then KPPERR [6mer-2-877], with 17 RU; and RNDWR [5mer-1052], with 17 RU.
Turning to KKKDKK [6mer-2-898], the Binding affinity (RU) stood at 16 RU.
Then KEADK [5mer-750], with 13 RU; and REHVRR [6mer-2-893], with 17 RU; and KPEDR [5mer-1050], with 31 RU.
Take RTNEKR [6mer-2-883]: the Binding affinity (RU) was found to be 22 RU.
Then RETGK [5mer-1070], with 26 RU.
Then KTHIK [5mer-1060], with 29 RU; and RCTPK [5mer-1056], with 11 RU.
Then KHEHK [5mer-1053], with 27 RU; and KMPER [5mer-762], with 21 RU.
RMHKK [5mer-1068] returned a Binding affinity (RU) of 11 RU.
Then KETVRR [6mer-2-878], with 24 RU.
Then RKTPK [5mer-753], with 30 RU; and RNEFR [5mer-765], with 12 RU.
Then RYAHR [5mer-1051], with 28 RU; and RNMEK [5mer-766], with 30 RU.
As to KIHFRK [6mer-2-874], the Binding affinity (RU) amounted to 33 RU.
As to RIWAR [5mer-760], the Binding affinity (RU) came to 19 RU.
Then RMPWR [5mer-761], with 31 RU; and KNWGRR [6mer-2-873], with 11 RU.
Then RPAHKK [6mer-2-897], with 17 RU; and RIAKRK [6mer-2-888], with 17 RU.
Then RIDHRK [6mer-2-875], with 13 RU; and KIPWR [5mer-1058], with 25 RU; and KHHEK [5mer-1055], with 15 RU.
Molecule RFDPK [5mer-1057] displayed a Binding affinity (RU) of 13 RU.
In turn, KNWDR [5mer-755] came in with a Binding affinity (RU) of 15 RU.
For the molecule KAWVK [5mer-752], the Binding affinity (RU) was 26 RU.
For the molecule KCDFK [5mer-758], the Binding affinity (RU) turned out to be 30 RU.
Consider REWDKK [6mer-2-889], for which the Binding affinity (RU) was 12 RU.
Then RTCARR [6mer-2-896], with 30 RU; and KNPIR [5mer-1065], with 18 RU.
For the molecule RDNPKR [6mer-2-890], the Binding affinity (RU) is 30 RU.
Then RCPKKR [6mer-2-887], with 18 RU; and RYMMR [5mer-751], with 20 RU; and KHTWR [5mer-749], with 24 RU.
Then KTWVRR [6mer-2-886], with 13 RU; and RTPAKR [6mer-2-882], with 15 RU; and KTEWK [5mer-769], with 32 RU.
Then RTHHKK [6mer-2-880], with 12 RU.
In turn, RMAGR [5mer-1059] gave a Binding affinity (RU) of 29 RU.
Then KCMVRR [6mer-2-885], with 17 RU.
As to RFWVK [5mer-1066], the Binding affinity (RU) was found to be 25 RU.
Then KDENRK [6mer-2-892], with 27 RU; and RFHWRR [6mer-2-894], with 22 RU.
Then KKPFR [5mer-770], with 11 RU.
Then KPPGR [5mer-1049], with 29 RU; and RKWVK [5mer-771], with 24 RU.
Molecule RCHVR [5mer-763] showed a Binding affinity (RU) of 30 RU.
Molecule RFHFK [5mer-767] displayed a Binding affinity (RU) of 12 RU.
Then KHKMR [5mer-759], with 17 RU.
Then RPSFK [5mer-1069], with 31 RU; and KHENK [5mer-1067], with 23 RU; and KMTMKK [6mer-2-884], with 11 RU.
For the molecule RAPWR [5mer-1062], the Binding affinity (RU) was found to be 24 RU.
Take KTWPK [5mer-764]: the Binding affinity (RU) is 19 RU.
Then KDTEKK [6mer-2-881], with 33 RU; and RNKVR [5mer-1054], with 21 RU.
Molecule KYCMR [5mer-757] had a Binding affinity (RU) of 17 RU.
Molecule RCDWR [5mer-756] gave a Binding affinity (RU) of 18 RU.
Then RYEGR [5mer-1071], with 16 RU; and RTMDRR [6mer-2-879], with 19 RU; and KEDNKR [6mer-2-876], with 17 RU.
For RPHVK [5mer-1063], the Binding affinity (RU) came to 20 RU.
KCMKR [5mer-1064] registered a Binding affinity (RU) of 20 RU.
KDSFR [5mer-1061] registered a Binding affinity (RU) of 24 RU.
Then RDSWR [5mer-768], with 11 RU; and RKNER [5mer-754], with 29 RU.
KYMAKK [6mer-2-895] showed a Binding affinity (RU) of 28 RU.
